Publication PMC6555819, “Comprehensive study of nuclear receptor DNA binding provides a revised framework for understanding receptor specificity”

Tests used:
THRa:RXRa = THRa:RXRa (Homo sapiens, UniProt P10827;P19793 full;full); test: no ligand; PBM; 90 nM : 90 nM RXRa; PBS pH 7.4, 2% milk, 0.02% Triton X-100, 1 mM DTT, BSA, 0.4 mg/ml salmon testes DNA; conditions: tags: His kept;His cleaved; copies: 1;1; label: surface-attached array probe
RARb:RXRa = RARb:RXRa (Homo sapiens, UniProt P10826;P19793 full;full); test: no ligand; PBM; 270 nM : 90 nM RXRa; PBS pH 7.4, 2% milk, 0.02% Triton X-100, 1 mM DTT, BSA, 0.4 mg/ml salmon testes DNA; conditions: tags: His kept;His cleaved; copies: 1;1; label: surface-attached array probe
Method in brief: (§1)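 Binding z-scores take random background probes as their reference. They come from custom Agilent 4×180K protein-binding microarrays incubated 1 h with ligand-free nuclear receptor dimers, with antibodies against each partner (one per run) detecting binding. Scanned fluorescence was regression-normalized.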

PPARa:RXRa = PPARa:RXRa (Homo sapiens, UniProt Q07869;P19793 full;full); test: as above; conditions: tags: GST kept;His cleaved; copies: 1;1; label: surface-attached array probe
Method in brief: as §1

LXRb:RXRa = LXRb:RXRa (Homo sapiens, UniProt P55055;P19793 full;full); test: as above; conditions: tags: His kept;His cleaved; copies: 1;1; label: surface-attached array probe
Method in brief: as §1

RXRa = RXRa (Homo sapiens, UniProt P19793); test: no ligand; PBM; 180 nM; PBS pH 7.4, 2% milk, 0.02% Triton X-100, 1 mM DTT, BSA, 0.4 mg/ml salmon testes DNA; conditions: tags: His cleaved; chain copies: 2; label: surface-attached array probe
RARg:RXRa = RARg:RXRa (Homo sapiens, UniProt P13631;P19793 full;full); test: no ligand; PBM; 270 nM : 90 nM RXRa; PBS pH 7.4, 2% milk, 0.02% Triton X-100, 1 mM DTT, BSA, 0.4 mg/ml salmon testes DNA; conditions: tags: His kept;His cleaved; copies: 1;1; label: surface-attached array probe
Method in brief: as §1

FXR:RXRa = FXR:RXRa (Homo sapiens, UniProt Q96RI1;P19793 full;full); test: as above; conditions: tags: His kept;His cleaved; copies: 1;1; label: surface-attached array probe
Method in brief: as §1

VDR:RXRa = VDR:RXRa (Homo sapiens, UniProt P11473;P19793 full;full); test: as above; conditions: tags: His kept;His cleaved; copies: 1;1; label: surface-attached array probe
Method in brief: as §1

RARb:RXRa, sequence (P10826 whole entry, chain 1 of 2): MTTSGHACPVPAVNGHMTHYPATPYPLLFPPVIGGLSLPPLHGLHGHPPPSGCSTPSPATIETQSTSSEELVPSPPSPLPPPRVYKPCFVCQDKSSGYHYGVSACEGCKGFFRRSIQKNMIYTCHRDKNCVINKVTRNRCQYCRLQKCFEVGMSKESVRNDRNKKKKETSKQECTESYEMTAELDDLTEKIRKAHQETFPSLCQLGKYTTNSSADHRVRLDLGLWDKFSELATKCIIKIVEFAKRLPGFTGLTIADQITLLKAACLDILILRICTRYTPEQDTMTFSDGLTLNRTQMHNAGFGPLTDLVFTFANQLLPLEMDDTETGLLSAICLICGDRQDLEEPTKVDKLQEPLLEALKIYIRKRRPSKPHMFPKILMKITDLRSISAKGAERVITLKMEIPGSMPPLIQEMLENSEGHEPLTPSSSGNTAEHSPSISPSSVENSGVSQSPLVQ
RARb:RXRa, sequence (P19793 whole entry, chain 2 of 2): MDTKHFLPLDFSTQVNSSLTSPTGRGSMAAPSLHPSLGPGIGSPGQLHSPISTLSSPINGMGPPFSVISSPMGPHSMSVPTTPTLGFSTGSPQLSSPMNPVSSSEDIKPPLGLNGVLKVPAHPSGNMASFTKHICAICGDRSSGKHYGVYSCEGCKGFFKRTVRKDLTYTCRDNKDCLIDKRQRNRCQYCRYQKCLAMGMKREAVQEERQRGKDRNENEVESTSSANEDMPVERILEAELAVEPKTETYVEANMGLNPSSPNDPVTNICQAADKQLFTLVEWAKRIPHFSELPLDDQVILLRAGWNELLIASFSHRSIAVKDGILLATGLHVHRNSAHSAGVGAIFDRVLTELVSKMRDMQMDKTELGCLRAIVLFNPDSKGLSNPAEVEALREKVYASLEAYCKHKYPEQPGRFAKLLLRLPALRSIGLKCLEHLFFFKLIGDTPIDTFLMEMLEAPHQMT
RXRa, sequence (P19793 whole entry): as the sequence (P19793 whole entry, chain 2 of 2) above
THRa:RXRa, sequence (P10827 other isoform, or with tags, fused parts or gaps, chain 1 of 2): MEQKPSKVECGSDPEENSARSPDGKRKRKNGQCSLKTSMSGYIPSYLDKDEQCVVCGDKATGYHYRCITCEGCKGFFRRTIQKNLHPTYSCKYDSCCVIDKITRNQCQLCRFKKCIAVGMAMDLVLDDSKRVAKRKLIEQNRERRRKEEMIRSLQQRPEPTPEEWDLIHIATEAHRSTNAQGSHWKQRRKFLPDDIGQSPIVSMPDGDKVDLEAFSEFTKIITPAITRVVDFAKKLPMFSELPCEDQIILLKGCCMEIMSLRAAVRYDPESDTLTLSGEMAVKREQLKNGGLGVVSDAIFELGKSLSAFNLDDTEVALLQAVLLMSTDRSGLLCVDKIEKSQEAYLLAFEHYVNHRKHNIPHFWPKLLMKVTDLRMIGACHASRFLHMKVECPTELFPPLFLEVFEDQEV
THRa:RXRa, sequence (P19793 whole entry, chain 2 of 2): as the sequence (P19793 whole entry, chain 2 of 2) above
LXRb:RXRa, sequence (P55055 whole entry, chain 1 of 2): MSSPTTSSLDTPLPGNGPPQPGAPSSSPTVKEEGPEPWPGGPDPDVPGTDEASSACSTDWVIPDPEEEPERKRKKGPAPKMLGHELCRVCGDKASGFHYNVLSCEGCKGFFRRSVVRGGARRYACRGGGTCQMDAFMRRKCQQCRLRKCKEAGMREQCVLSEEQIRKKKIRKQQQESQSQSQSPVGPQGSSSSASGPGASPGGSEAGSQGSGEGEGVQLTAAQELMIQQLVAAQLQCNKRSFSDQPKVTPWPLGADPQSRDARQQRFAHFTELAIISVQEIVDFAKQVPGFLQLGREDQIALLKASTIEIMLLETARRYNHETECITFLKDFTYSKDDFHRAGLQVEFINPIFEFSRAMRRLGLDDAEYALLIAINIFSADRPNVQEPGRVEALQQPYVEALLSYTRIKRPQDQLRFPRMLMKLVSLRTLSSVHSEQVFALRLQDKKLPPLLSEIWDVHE
LXRb:RXRa, sequence (P19793 whole entry, chain 2 of 2): as the sequence (P19793 whole entry, chain 2 of 2) above
RARg:RXRa, sequence (P13631 whole entry, chain 1 of 2): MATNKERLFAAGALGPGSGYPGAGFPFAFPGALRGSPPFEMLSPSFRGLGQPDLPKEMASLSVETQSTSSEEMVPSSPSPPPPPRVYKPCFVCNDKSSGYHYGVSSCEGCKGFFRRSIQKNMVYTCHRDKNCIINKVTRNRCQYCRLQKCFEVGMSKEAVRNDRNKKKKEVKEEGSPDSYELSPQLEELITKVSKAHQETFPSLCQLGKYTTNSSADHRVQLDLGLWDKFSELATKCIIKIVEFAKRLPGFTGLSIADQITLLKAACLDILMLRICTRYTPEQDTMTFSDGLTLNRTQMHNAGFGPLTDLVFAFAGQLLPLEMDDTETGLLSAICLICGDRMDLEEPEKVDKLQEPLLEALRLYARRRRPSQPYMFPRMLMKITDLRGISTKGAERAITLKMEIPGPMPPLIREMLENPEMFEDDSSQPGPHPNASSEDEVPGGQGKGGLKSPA
RARg:RXRa, sequence (P19793 whole entry, chain 2 of 2): as the sequence (P19793 whole entry, chain 2 of 2) above
PPARa:RXRa, sequence (Q07869 whole entry, chain 1 of 2): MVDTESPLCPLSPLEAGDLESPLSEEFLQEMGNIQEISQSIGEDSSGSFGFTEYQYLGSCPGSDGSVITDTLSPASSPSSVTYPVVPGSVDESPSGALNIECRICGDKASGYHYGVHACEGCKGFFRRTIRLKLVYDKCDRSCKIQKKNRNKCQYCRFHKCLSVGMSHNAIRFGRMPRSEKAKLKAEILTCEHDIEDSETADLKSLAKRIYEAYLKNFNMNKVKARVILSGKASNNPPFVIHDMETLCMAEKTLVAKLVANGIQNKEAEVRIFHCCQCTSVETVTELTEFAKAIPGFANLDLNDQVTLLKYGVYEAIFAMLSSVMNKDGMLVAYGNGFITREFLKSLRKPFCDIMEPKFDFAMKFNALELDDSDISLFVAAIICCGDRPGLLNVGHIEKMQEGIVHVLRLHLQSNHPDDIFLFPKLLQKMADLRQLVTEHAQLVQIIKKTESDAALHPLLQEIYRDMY
PPARa:RXRa, sequence (P19793 whole entry, chain 2 of 2): as the sequence (P19793 whole entry, chain 2 of 2) above
VDR:RXRa, sequence (P11473 whole entry, chain 1 of 2): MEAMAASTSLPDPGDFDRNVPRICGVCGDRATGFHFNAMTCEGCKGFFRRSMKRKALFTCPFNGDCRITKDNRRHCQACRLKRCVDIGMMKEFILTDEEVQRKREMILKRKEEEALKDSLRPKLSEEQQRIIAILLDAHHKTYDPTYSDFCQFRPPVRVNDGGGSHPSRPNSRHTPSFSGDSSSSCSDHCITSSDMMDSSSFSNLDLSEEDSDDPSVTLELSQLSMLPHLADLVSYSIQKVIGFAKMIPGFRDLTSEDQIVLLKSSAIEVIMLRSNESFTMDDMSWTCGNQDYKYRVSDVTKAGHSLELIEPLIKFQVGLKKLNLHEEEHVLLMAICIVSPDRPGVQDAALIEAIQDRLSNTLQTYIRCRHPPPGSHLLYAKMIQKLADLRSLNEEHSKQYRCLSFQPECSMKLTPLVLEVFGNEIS
VDR:RXRa, sequence (P19793 whole entry, chain 2 of 2): as the sequence (P19793 whole entry, chain 2 of 2) above
FXR:RXRa, sequence (Q96RI1 whole entry, chain 1 of 2): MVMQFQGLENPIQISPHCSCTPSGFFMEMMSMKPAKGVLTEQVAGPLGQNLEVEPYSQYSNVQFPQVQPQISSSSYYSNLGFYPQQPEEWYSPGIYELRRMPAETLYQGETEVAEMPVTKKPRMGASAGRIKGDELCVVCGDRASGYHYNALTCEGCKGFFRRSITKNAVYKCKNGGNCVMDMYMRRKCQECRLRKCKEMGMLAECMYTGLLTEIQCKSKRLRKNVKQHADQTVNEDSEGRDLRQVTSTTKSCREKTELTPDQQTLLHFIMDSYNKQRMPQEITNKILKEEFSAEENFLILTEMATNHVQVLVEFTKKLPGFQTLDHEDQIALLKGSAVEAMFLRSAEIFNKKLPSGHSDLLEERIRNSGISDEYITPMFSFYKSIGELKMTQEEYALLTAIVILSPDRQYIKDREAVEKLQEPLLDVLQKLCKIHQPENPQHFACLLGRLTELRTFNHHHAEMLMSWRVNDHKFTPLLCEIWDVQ
FXR:RXRa, sequence (P19793 whole entry, chain 2 of 2): as the sequence (P19793 whole entry, chain 2 of 2) above

Row | Binder | binding signal (THRa:RXRa) | binding signal (RARb:RXRa) | binding signal (PPARa:RXRa) | binding signal (LXRb:RXRa) | binding signal (RXRa) | binding signal (RARg:RXRa) | binding signal (FXR:RXRa) | binding signal (VDR:RXRa)
1 | NRC3_wobSeed109_DR4_G25A_o1 (dsDNA) DNA 1: GCCGTCCAAGGTCATAGGAGGTCAATGAAGACAGATGCGATTGACAGCGTAGAATGAAGG DNA 2: CCTTCATTCTACGCTGTCAATCGCATCTGTCTTCATTGACCTCCTATGACCTTGGACGGC | 5.65 PBM z-score against 500 random probes | 5.71 PBM z-score against 500 random probes | 6.49 PBM z-score against 500 random probes | 7.06 PBM z-score against 500 random probes | – | – | – | –
2 | NRC3_wobSeed13_DR0_G21C_o1 (dsDNA) DNA 1: GCCGTCCAAGGTCAAGGTCACTGAAAGAGACTCGAAGCGATTGACAGCGTAGAATGAAGG DNA 2: CCTTCATTCTACGCTGTCAATCGCTTCGAGTCTCTTTCAGTGACCTTGACCTTGGACGGC | 4.85 PBM z-score against 500 random probes | 5.97 PBM z-score against 500 random probes | 6.7 PBM z-score against 500 random probes | – | 7.81 PBM z-score against 500 random probes | 7.34 PBM z-score against 500 random probes | – | –
3 | NRC3_wobSeed101_DR4_C18A_o1 (dsDNA) DNA 1: GCCCTTACGGGTCACTCAAGGTTATAGCATCGGAGTGCGATTGACAGCGTAGAATGAAGG DNA 2: CCTTCATTCTACGCTGTCAATCGCACTCCGATGCTATAACCTTGAGTGACCCGTAAGGGC | 5.41 PBM z-score against 500 random probes | – | – | 6.18 PBM z-score against 500 random probes | – | – | – | –
4 | NRC3_random_hg19_180_o1 (dsDNA) DNA 1: GCCAAGATAACCAGCTTATCTATCAGTTGGAGCAGAGCGATTGACAGCGTAGAATGAAGG DNA 2: CCTTCATTCTACGCTGTCAATCGCTCTGCTCCAACTGATAGATAAGCTGGTTATCTTGGC | -0.68 PBM z-score against 500 random probes | – | – | -0.9 PBM z-score against 500 random probes | – | – | – | –
5 | NRC3_random_hg19_10_o1 (dsDNA) DNA 1: GCAGCCTCCTGTTGGGTGGTCTGGTCCACCTCCTCAGCGATTGACAGCGTAGAATGAAGG DNA 2: CCTTCATTCTACGCTGTCAATCGCTGAGGAGGTGGACCAGACCACCCAACAGGAGGCTGC | -1.74 PBM z-score against 500 random probes | -0.72 PBM z-score against 500 random probes | – | – | -1.64 PBM z-score against 500 random probes | -1.37 PBM z-score against 500 random probes | -0.8 PBM z-score against 500 random probes | –
6 | NRC3_random_hg19_113_o1 (dsDNA) DNA 1: GCGAGATTCCAGATGAGAACTGCTCAGCCAAACTCTGCGATTGACAGCGTAGAATGAAGG DNA 2: CCTTCATTCTACGCTGTCAATCGCAGAGTTTGGCTGAGCAGTTCTCATCTGGAATCTCGC | -0.47 PBM z-score against 500 random probes | -0.57 PBM z-score against 500 random probes | -0.69 PBM z-score against 500 random probes | – | – | – | – | –
7 | NRC3_random_hg19_406_o1 (dsDNA) DNA 1: GCGAAGAACCTCCAAACTGTTCTCCATGGTAGTTGTGCGATTGACAGCGTAGAATGAAGG DNA 2: CCTTCATTCTACGCTGTCAATCGCACAACTACCATGGAGAACAGTTTGGAGGTTCTTCGC | -0.25 PBM z-score against 500 random probes | – | – | – | -0.04 PBM z-score against 500 random probes | -0.45 PBM z-score against 500 random probes | -0.19 PBM z-score against 500 random probes | –
8 | NRC3_random_hg19_423_o1 (dsDNA) DNA 1: GCATCAAGTGATCCTCCCACCTCAGCCTTCCAAGTCGCGATTGACAGCGTAGAATGAAGG DNA 2: CCTTCATTCTACGCTGTCAATCGCGACTTGGAAGGCTGAGGTGGGAGGATCACTTGATGC | 0.07 PBM z-score against 500 random probes | 0.02 PBM z-score against 500 random probes | – | – | – | – | – | –
9 | NRC3_random_hg19_74_o1 (dsDNA) DNA 1: GCAGAACAGCTGAGTGGCTCAAGACCGCAGAGGAACGCGATTGACAGCGTAGAATGAAGG DNA 2: CCTTCATTCTACGCTGTCAATCGCGTTCCTCTGCGGTCTTGAGCCACTCAGCTGTTCTGC | -0.75 PBM z-score against 500 random probes | -1.89 PBM z-score against 500 random probes | – | – | – | – | – | –
10 | NRC3_random_hg19_222_o1 (dsDNA) DNA 1: GCGAAGCATTCTAAGAAACTTCTTCGTGATGTGTGTGCGATTGACAGCGTAGAATGAAGG DNA 2: CCTTCATTCTACGCTGTCAATCGCACACACATCACGAAGAAGTTTCTTAGAATGCTTCGC | -0.74 PBM z-score against 500 random probes | -1.15 PBM z-score against 500 random probes | – | – | – | -0.49 PBM z-score against 500 random probes | – | –
11 | NRC3_random_hg19_121_o1 (dsDNA) DNA 1: GCGCAGTAGGCACAGGGACTGTGTACAGATCTACACGCGATTGACAGCGTAGAATGAAGG DNA 2: CCTTCATTCTACGCTGTCAATCGCGTGTAGATCTGTACACAGTCCCTGTGCCTACTGCGC | -2.89 PBM z-score against 500 random probes | -1.18 PBM z-score against 500 random probes | – | – | – | – | – | –
12 | NRC3_random_hg19_397_o1 (dsDNA) DNA 1: GCGGTGTCGTGTGCCTGTGATCCCAGCTACGCAGGCGCGATTGACAGCGTAGAATGAAGG DNA 2: CCTTCATTCTACGCTGTCAATCGCGCCTGCGTAGCTGGGATCACAGGCACACGACACCGC | -0.32 PBM z-score against 500 random probes | 0.07 PBM z-score against 500 random probes | – | – | -0.17 PBM z-score against 500 random probes | – | – | -0.31 PBM z-score against 500 random probes
13 | NRC3_wobSeed141_DR5_T11G_o1 (dsDNA) DNA 1: GCAGTCAAAGGTCAGGACGAGGTAACGTAAAGCACGGCGATTGACAGCGTAGAATGAAGG DNA 2: CCTTCATTCTACGCTGTCAATCGCCGTGCTTTACGTTACCTCGTCCTGACCTTTGACTGC | 4.79 PBM z-score against 500 random probes | 5.96 PBM z-score against 500 random probes | – | – | – | 7.48 PBM z-score against 500 random probes | – | –
14 | NRC3_random_hg19_16_o1 (dsDNA) DNA 1: GCGTTGTATCGTGTTATGTATGAGAGTCAGGATCTTGCGATTGACAGCGTAGAATGAAGG DNA 2: CCTTCATTCTACGCTGTCAATCGCAAGATCCTGACTCTCATACATAACACGATACAACGC | 0.16 PBM z-score against 500 random probes | – | – | 0.41 PBM z-score against 500 random probes | – | – | – | –
15 | NRC3_wobSeed133_DR5_T19A_o1 (dsDNA) DNA 1: GCCGTCCAAGGTCAATGCAAGGTCAGTGAAAGCATTGCGATTGACAGCGTAGAATGAAGG DNA 2: CCTTCATTCTACGCTGTCAATCGCAATGCTTTCACTGACCTTGCATTGACCTTGGACGGC | 5 PBM z-score against 500 random probes | 5.87 PBM z-score against 500 random probes | – | – | – | 8.21 PBM z-score against 500 random probes | – | –
16 | NRC3_random_hg19_371_o1 (dsDNA) DNA 1: GCTTAAGGATGGACCATTGGCTAAAGCAATGTCAAAGCGATTGACAGCGTAGAATGAAGG DNA 2: CCTTCATTCTACGCTGTCAATCGCTTTGACATTGCTTTAGCCAATGGTCCATCCTTAAGC | -0.29 PBM z-score against 500 random probes | – | – | -0.56 PBM z-score against 500 random probes | – | – | – | –
17 | NRC3_wobSeed120_DR4_G20A_o1 (dsDNA) DNA 1: GCCCGAGTAGGTTACGAGGAGGCATTCAGTGCGAATGCGATTGACAGCGTAGAATGAAGG DNA 2: CCTTCATTCTACGCTGTCAATCGCATTCGCACTGAATGCCTCCTCGTAACCTACTCGGGC | 0.17 PBM z-score against 500 random probes | – | – | – | – | – | – | 0.09 PBM z-score against 500 random probes
18 | NRC3_wobSeed37_DR1_T23G_o1 (dsDNA) DNA 1: GCCGTCCAAGGTCAAAGGTCAGGGAAGAGATGACGGGCGATTGACAGCGTAGAATGAAGG DNA 2: CCTTCATTCTACGCTGTCAATCGCCCGTCATCTCTTCCCTGACCTTTGACCTTGGACGGC | 5.23 PBM z-score against 500 random probes | 6.26 PBM z-score against 500 random probes | 7.45 PBM z-score against 500 random probes | – | – | – | – | –
19 | NRC3_wobSeed37_DR1_G22A_o1 (dsDNA) DNA 1: GCCGTCCAAGGTCAAAGGTCAATGAAGAGATGACGGGCGATTGACAGCGTAGAATGAAGG DNA 2: CCTTCATTCTACGCTGTCAATCGCCCGTCATCTCTTCATTGACCTTTGACCTTGGACGGC | 5.12 PBM z-score against 500 random probes | – | 7.52 PBM z-score against 500 random probes | 7.29 PBM z-score against 500 random probes | 10.7 PBM z-score against 500 random probes | 9.11 PBM z-score against 500 random probes | – | –
20 | NRC3_random_hg19_173_o1 (dsDNA) DNA 1: GCATCCACCACCATGCAGAGGCAAGAATGGTCAGGCGCGATTGACAGCGTAGAATGAAGG DNA 2: CCTTCATTCTACGCTGTCAATCGCGCCTGACCATTCTTGCCTCTGCATGGTGGTGGATGC | 0.01 PBM z-score against 500 random probes | – | – | – | 0.16 PBM z-score against 500 random probes | – | – | –
